{
  "source": "paper PMC7244511",
  "about": "“Phosphoproteomics identifies dual-site phosphorylation in an extended basophilic motif regulating FILIP1-mediated degradation of filamin-C” (Communications Biology, 2020)",
  "parents": {"B1": {"name": "Myc-hFLNc d18–21 wild type (expressed in HEK293 cells) [human] / FILIP1 CT-GFP (expressed in HEK293 cells) [not stated] (parent)", "chain 1": "LELSKRYSRALRPSVNGRRMVDVPVTSTGVQTDAVSGEAAEEETPAVFIRKSFQEENHIMSNLRQVGLKKPVERSSVLDRYPPAANELTMRKSWIPWMRKRENGPSITQEKGPRTNSSPGHPGEVVLSPKQGQPLHIRVTPDHENSTATLEITSPTSEEFFSSTTVIPTLGNQKPRITIIPSPNVMPQKQKSGDTTLGPERAMSPVTITTFSREKTPESGRGAFADRPTSPIQIMTVSTSAAPAEIAVSPESQEMPMGRTILKVTPEKQTVPTPVRKYNSNANIITTEDNKIHIHLGSQFKRSPGTSGEGVSPVITVRPVNVTAEKEVSTGTVLRSPRNHLSSRPGASKVTSTITITPVTTSSARGTQSVSGQDGSSQRPTPTRIPMSKESIIIHQLRMNSR", "chain 2": "TGDDSMRTSQLNVGTSTDVSLKITESDLSQLTASIRAPSGNEEPCLLKRLPNRHIGISFTPKEVGEHVVSVRKSGKHVTNSPFKILVGPSEIGDASKVRVWGKGLSEGHTFQVAEFIVDTRNAGYGGLGLSIEGPSKVDINCEDMEDGTCKVTYCPTEPGTYIINIKFADKHVPGSPFTVKVTGEGRMKESITRRRQAPSIATIGSTCDLNLKIPGNWFQMVSAQERLTRTFTRSSHTYTRTERTEISKTRGGETKREVRVEESTQVGGDPFPAVFGDFLGRERLGSFGSITRQQEGEASSQDMTAQVTSPSGKVEAAEIVEGEDSAYSVRFVPQEMGPHTVAVKYRGQHVPGSPFQFTVGPLGEGGAHKVRAGGTGLERGVAGVPAEFSIWTREAGAGGLSIAVEGPSKAEIAFEDRKDGSCGVSYVVQEPGDYEVSIKFNDEHIPDSPFVVPVASLSDDARR"}, "B2": {"name": "Myc-tagged FLNc d18–21 WT (expressed in C2 cells) [human] / FILIP1 CT-GFP (expressed in C2 cells) [not stated] (parent)", "chain 1": "MRSRNQGGESASDGHISCPKPSIIGNAGEKSLSEDAKKKKKSNRKEDDVMASGTVKRHLKTSGECERKTKKSLELSKEDLIQLLSIMEGELQAREDVIHMLKTEKTKPEVLEAHYGSAEPEKVLRVLHRDAILAQEKSIGEDVYEKPISELDRLEEKQKETYRRMLEQLLLAEKCHRRTVYELENEKHKHTDYMNKSDDFTNLLEQERERLKKLLEQEKAYQARKEKENAKRLNKLRDELVKLKSFALMLVDERQMHIEQLGLQSQKVQDLTQKLREEEEKLKAITSKSKEDRQKLLKLEVDFEHKASRFSQEHEEMNAKLANQESHNRQLRLKLVGLTQRIEELEETNKNLQKAEEELQELRDKIAKGECGNSSLMAEVENLRKRVLEMEGKDEEITKTESQCRELRKKLQEEEHHSKELRLEVEKLQKRMSELEKLEEAFSKSKSECTQLHLNLEKEKNLTKDLLNELEVVKSRVKELECSESRLEKAELSLKDDLTKLKSFTVMLVDERKNMMEKIKQEERKVDGLNKNFKVEQGKVMDVTEKLIEESKKLLKLKSEMEEKVYNLTRERDELIGKLKSEEEKSSELSCSVDLLKKRLDGIEEVEREITRGRSRKGSELTCPEDNKIKELTLEIERLKKRLQQLEVVEGDLMKTEDEYDQLEQKFRTEQDKANFLSQQLEEIKHQIAKNKAIEKGEVVSQEAELRHRFRLEEAKSRDLKAEVQALKEKIHELMNKEDQLSQLQVDYSVLQQRFMEEENKNKNMGQEVLNLTKELELSKRYSRALRPSVNGRRMVDVPVTSTGVQTDAVSGEAAEEETPAVFIRKSFQEENHIMSNLRQVGLKKPVERSSVLDRYPPAANELTMRKSWIPWMRKRENGPSITQEKGPRTNSSPGHPGEVVLSPKQGQPLHIRVTPDHENSTATLEITSPTSEEFFSSTTVIPTLGNQKPRITIIPSPNVMPQKQKSGDTTLGPERAMSPVTITTFSREKTPESGRGAFADRPTSPIQIMTVSTSAAPAEIAVSPESQEMPMGRTILKVTPEKQTVPTPVRKYNSNANIITTEDNKIHIHLGSQFKRSPGTSGEGVSPVITVRPVNVTAEKEVSTGTVLRSPRNHLSSRPGASKVTSTITITPVTTSSARGTQSVSGQDGSSQRPTPTRIPMSKGMKAGKPVVAAPGAGNLTKFEPRAETQSMKIELKKSAASSTTSLGGGKG", "chain 2": "B1 chain 2"}},
  "data": [
    {"variants_of": "B1", "test": "co-immunoprecipitation (anti-Myc) with quantitative immunoblot", "settings": "HEK293 cells transiently expressing FILIP1 CT-GFP and Myc-hFLNc d18–21, n = 3–6, read off a plot", "values": [
      {"variant": "chain 2 S287D S290D", "ratio to parent": 0.82},
      {"variant": "chain 2 S287A S290A", "ratio to parent": 2.1},
      {"variant": "chain 2 S287A", "ratio to parent": 1.4},
      {"variant": "chain 2 S287D", "ratio to parent": 1},
      {"variant": "chain 2 S290D", "ratio to parent": 1},
      {"variant": "chain 2 S290A", "ratio to parent": 1}
    ]},
    {"variants_of": "B2", "test": "co-immunoprecipitation (anti-Myc) with quantitative immunoblot", "settings": "C2 cells transiently expressing FILIP1 CT-GFP and Myc-hFLNc d18–21, n = 3, read off a plot", "values": [
      {"variant": "chain 2 S287A S290A", "ratio to parent": 1.8},
      {"variant": "chain 2 S287D S290D", "ratio to parent": 0.82}
    ]}
  ]
}
